Experimental data from US20150307627A1.
Substitutions are numbered along the chain they refer to.

B1: IgG-Fc-11 (VHH)
VHH: QVQLQESGGGLVQAGGSLRLSCAVSGRTFSTYAMGWFRQAPGKEREFVGSANWKSGSTYLVDSVKGRFTISGDNAHDTVHLQMTSLKPEDTGVYFCVARSFGTGQWDYWGQGTQVTVSS
B2: IgG-Fc-12 (VHH)
VHH: B1 VHH with A51I, W53F, T58I, V61A, H76Q, D77N, V79A, H80Y, G92A, F95L
B3: IgG-Fc-14 (VHH)
VHH: QVQLQESGGGLVQTGGSLRLSCSASGGTFETYAMGWFRQAPGKEREFVGSTNWKSERTYVADSVKGRFTISRDNGQYTAYLQMTSLKPEDTAVYFCVARSFGTGQWDYWGQGTQVTVSS
B4: IgG-Fc-15 (VHH)
VHH: QVQLQESGGGLVQAGGSLRLSCAVSGRGFSTYAMGWFRQAPGKEREFVGSANWKSGSIYVADSVKGRFTISNDNAQNTVYLQMSSLKPEDTAVYYCVARSFGTGQWDYWGQGTQVTVSS
B5: IgG-Fc-13 (VHH)
VHH: QVQLQESGGGLVQAGGSLRLSCAASGDTFSTYAMGWFRQAPGKEREFVGRIVRGTESTYLIDSVKGRFAISRDNAQNTVYLQMTSLKPEDTAVYFCVARSFGAGQWDYWGQGTQVTVSS

molecular target: Human IgG; test: method not given

Ka, > 4e+09 M⁻¹:
B1
B2
B3
B4
B5
